# pKd: −log10 of the molar value.
# Tests used:
# [1] = target: H. polygyrus TGF-β Mimic 6 (TGM6) (H. polygyrus); test: ITC; binder in the syringe, target in the sample cell, concentrations as in the tables; 25 °C; 25 mM HEPES, 150 mM NaCl, 0.05% NaN3, pH 7.4; fit to a simple 1:1 binding model
# [2] = target: TGM6 domain 3 (TGM6-D3) (H. polygyrus); test: as above
# [3] = target: TGM6-D3 I78A (H. polygyrus); test: as above
# [4] = target: TGM6-D3 P94K R95N (KN) (H. polygyrus); test: as above
# [5] = target: TGM6-D3 R38A (H. polygyrus); test: as above
# [6] = target: TGM6-D3 R95A (H. polygyrus); test: as above
# [7] = target: TGM6-D3 Y80A (H. polygyrus); test: as above
# [8] = target: TGM6-D3 Y80F (H. polygyrus); test: as above
# [9] = target: TGM6-D3 Y93A (H. polygyrus); test: as above
# [10] = target: TGM1 domain 3 (TGM1-D3) (H. polygyrus); test: ITC; binder in the syringe, target in the sample cell, concentrations as in the tables; 35 °C; 25 mM HEPES, 150 mM NaCl, 0.05% NaN3, pH 7.4; fit to a simple 1:1 binding model
# [11] = target: TGM1-D3 K241Q S242R G243R T244G (QRRG) (H. polygyrus); test: as above
# [12] = target: TGM1-D3 K254P N255R (PR) (H. polygyrus); test: as above
# [13] = target: TGM1-D3 S242R (H. polygyrus); test: as above
# [14] = target: TGM6 domain 3 (TGM6-D3) (H. polygyrus); test: as above
# [15] = target: TGM6-D3 Q81K R82S R83G G84T (KSGT) (H. polygyrus); test: as above
# [16] = target: TGM6-D3 R82A (H. polygyrus); test: as above
# [17] = target: TGM6-D3 R82S (H. polygyrus); test: as above
# [18] = target: TGM6 domain 3 (TGM6-D3) (H. polygyrus); test: ITC; competition: 150 μM TGFBR2 in the syringe into 15 μM TGM6-D3 in the cell with 0.0 or 6.0 μM TGM1-D3; 25 °C; ITC buffer pH 7.4; global fit to a simple competitive binding model; constants are for binding in the absence of competitor
# [19] = target: TGFBR2 extracellular domain (TGF-β type II receptor) (UniProt P37173); test: ITC; TGM6-D3, TGM1-D3 and TGFBR2 variants, simple binding model, 1–2 replicates per variant; syringe and cell proteins in Supplementary Table 6; 25 mM HEPES, 150 mM NaCl, 0.05% NaN3, pH 7.4
# [20] = target: TGFBR2 extracellular domain (TGF-β type II receptor) (UniProt P37173)
# [21] = target: TGF-β type II receptor extracellular domain (TGFBR2) (human); test: ITC; binder in the syringe, target in the sample cell, concentrations as in the tables; 25 °C; 25 mM HEPES, 150 mM NaCl, 0.05% NaN3, pH 7.4; fit to a simple 1:1 binding model
# TGFBR2 D141A (human) = test: as above
# TGFBR2 I76A (human) = test: as above
# TGFBR2 D55A (human) = test: ITC; binder in the syringe, target in the sample cell, concentrations as in the tables; 35 °C; 25 mM HEPES, 150 mM NaCl, 0.05% NaN3, pH 7.4; fit to a simple 1:1 binding model
# TGFBR2 E142A (human) = test: as above
# [22] = target: TGM1 domains 4 and 5 (TGM1-D45) (H. polygyrus); test: as above
substance,measurement,setting,value
TGF-β type II receptor extracellular domain (TGFBR2),pKd,[1],6.65
same,stoichiometry N,[1],1.16 sites
same,pKd,[2],6.44
same,stoichiometry N,[2],0.87 sites
same,pKd,[3],5.25
same,stoichiometry N,[3],0.71 sites
same,pKd,[4],6.57
same,stoichiometry N,[4],0.9 sites
same,pKd,[5],5.10
same,stoichiometry N,[5],0.85 sites
same,pKd,[6],5.42
same,stoichiometry N,[6],1 sites
same,pKd,[7],4.32
same,stoichiometry N,[7],0.33 sites
same,pKd,[8],5.90
same,stoichiometry N,[8],0.67 sites
same,pKd,[9],4.41
same,stoichiometry N,[9],0.17 sites
same,pKd,[10],5.82
same,stoichiometry N,[10],0.72 sites
same,pKd,[11],6.77
same,stoichiometry N,[11],1.1 sites
same,pKd,[12],5.58
same,stoichiometry N,[12],0.91 sites
same,pKd,[13],6.42
same,stoichiometry N,[13],0.7 sites
same,pKd,[14],6.36
same,stoichiometry N,[14],1.01 sites
same,pKd,[15],5.35
same,stoichiometry N,[15],0.82 sites
same,pKd,[16],5.37
same,stoichiometry N,[16],0.93 sites
same,pKd,[17],5.51
same,stoichiometry N,[17],1.12 sites
same,pKd,[18],6.72
TGM1-D3 S242R (domain or fragment),fold gain of binding affinity against wild type,[19],4 fold
"TGM6 (TGF-β mimic 6), full-length (natural protein)",IC50 of inhibition of the TGF-β1- or TGM1-stimulated CAGA luciferase reporter in NIH-3T3 fibroblasts by increasing concentrations of TGM6,[20],50 pM
same,IC50 of inhibition of the TGF-β1- or TGM1-stimulated reporter in MFB-F11 fibroblasts by increasing concentrations of TGM6,[20],0.0002 µM
TGM6 domain 3 (TGM6-D3) (domain or fragment),pKd,[21],6.46
same,stoichiometry N,[21],0.68 sites
same,pKd,TGFBR2 D141A (human),6.03
same,stoichiometry N,TGFBR2 D141A (human),0.75 sites
same,pKd,TGFBR2 I76A (human),5.13
same,stoichiometry N,TGFBR2 I76A (human),0.69 sites
same,pKd,TGFBR2 D55A (human),5.65
same,stoichiometry N,TGFBR2 D55A (human),0.52 sites
same,pKd,TGFBR2 E142A (human),5.50
same,stoichiometry N,TGFBR2 E142A (human),0.56 sites
TGM6-D3 I78A (domain or fragment),fold decrease in binding affinity against wild type,[19],15.4 fold
TGM6-D3 R38A (domain or fragment),fold decrease in binding affinity against wild type,[19],22 fold
TGM6-D3 R82A (domain or fragment),fold decrease in binding affinity against wild type,[19],11 to 12 fold
TGM6-D3 R82S (domain or fragment),fold loss of binding affinity against wild type,[19],8.6 fold
TGM6-D3 R95A (domain or fragment),fold decrease in binding affinity against wild type,[19],11.6 fold
TGM6-D3 Y80A (domain or fragment),fold decrease in binding affinity against wild type,[19],134 fold
TGM6-D3 Y80F (domain or fragment),fold decrease in binding affinity against wild type,[19],3.5 fold
TGM6-D3 Y93A (domain or fragment),fold decrease in binding affinity against wild type,[19],108 fold
mouse CD44 (mCD44) (receptor),pKd,[22],6.90
same,stoichiometry N,[22],0.82 sites
